Reference: patent publication US20120189639A1 (Merck Sharp & Dohme, published 2012)

T1: human GITR on naïve CD4+ T cells (human, UniProt Q9Y5U5 26-241)
T1 sequence: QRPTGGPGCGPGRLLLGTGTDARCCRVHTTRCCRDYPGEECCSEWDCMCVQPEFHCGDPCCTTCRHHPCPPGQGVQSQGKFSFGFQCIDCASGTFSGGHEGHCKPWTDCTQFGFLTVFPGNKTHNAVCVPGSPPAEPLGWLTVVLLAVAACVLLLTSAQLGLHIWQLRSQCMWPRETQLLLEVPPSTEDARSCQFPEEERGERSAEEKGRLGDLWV

T2: hGITR-hIgG (human, UniProt Q9Y5U5 26-161, limits assumed)
T2 construct: not shown: human IgG part of the fusion
T2 sequence: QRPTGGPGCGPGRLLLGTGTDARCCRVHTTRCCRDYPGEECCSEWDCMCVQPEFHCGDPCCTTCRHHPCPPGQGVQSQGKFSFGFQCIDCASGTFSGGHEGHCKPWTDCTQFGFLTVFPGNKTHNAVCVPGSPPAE


Assays:
[1] = molecular target: T1, human GITR on naïve CD4+ T cells; test: cell-based or functional assay
hGITR-hIgG [2] = molecular target: T2, hGITR-hIgG; test: BIAcore SPR; hGITR-hIgG capture antigen, mAb analyte
Method: (§1) BIAcore determinations are performed essentially as described at Example 4 of co-pending, commonly assigned U.S. patent application Ser. No. 11/511,635 (filed 29 Aug. 2006). Briefly, binding partners are immobilized on a BIAcore CM5 sensor chip using standard amine-coupling procedure. Kinetic constants for the various interactions are determined using BIAevaluation software 3.1. The Kd is determined using the calculated dissociation and association rate constants.

hGITR-hIgG [3] = molecular target: T2, hGITR-hIgG; test: BIAcore SPR; hGITR-hIgG capture antigen, mAb analyte; apparent Kd
Method: as §1

proliferation of naïve CD4+ T cells, mean, at 0.04 ng/mL Ab [1]	proliferation of naïve CD4+ T cells, mean, at 0.15 ng/mL Ab [1]	proliferation of naïve CD4+ T cells, mean, at 0.61 ng/mL Ab [1]	proliferation of naïve CD4+ T cells, mean, at 2.4 ng/mL Ab [1]	proliferation of naïve CD4+ T cells, mean, at 9.8 ng/mL Ab [1]	proliferation of naïve CD4+ T cells, mean, at 39.1 ng/mL Ab [1]	proliferation of naïve CD4+ T cells, mean, at 156 ng/mL Ab [1]	proliferation of naïve CD4+ T cells, mean, at 625 ng/mL Ab [1]	proliferation of naïve CD4+ T cells, mean, at 2500 ng/mL Ab [1]	proliferation of naïve CD4+ T cells, mean, at 10000 ng/mL Ab [1]	koff (hGITR-hIgG [2])	kon (hGITR-hIgG [2])	Kd (hGITR-hIgG [3])	Binder
33300	30800	33800	43100	79300	124000	109000	111000	109000	96200	0.000766 s⁻¹	95000 M⁻¹ s⁻¹	8.05 nM	3D6 (antibody, V domains shown, Parental rodent anti-human GITR monoclonal antibody from a hybridoma; kappa VL; also called JL5.3D6; hybridoma PTA-9889) VH: EVQLVESGGGLVQPGRSLKLSCAASGFTFSDYYMAWVRQAPTKGLEWVAYIHANGGSTYYRDSVRGRFSISRDNGKSTLYLQMDSLRSEDTATYYCTTGSFMYAADYYIMDAWGQGASVTVSS VL: DVVMTQTPVSLSVSLGNQASISCRSSQSLLHSDGNTFLSWYFQKPGQSPQLLIYLASNRFSGVSNRFSGSGSGTDFTLKISRVEPEDLGVYYCFQHTHLPLTFGSGTKLEIKR
38500	33400	30200	35600	60000	104000	123000	120000	107000	91900	0.000919 s⁻¹	610000 M⁻¹ s⁻¹	1.51 nM	6H6 (antibody, V domains shown, Parental rodent anti-human GITR monoclonal antibody from a hybridoma; kappa VL; also called 6H6.C3; hybridoma PTA-9892) VH: QVQLQQSGAELMKPGASVKISCKATGYTFSRYWIEWIKQRPGHGLEWIGEILPGSGSSNYNEKFKDKATFTADTSSNTAYMQFSSLTSEDSAVYYCARKVYYYAMDFWGQGTSVTVSS VL: QIVLTQSPAIMSVSLGERVTVTCTASSSVSSSYFHWYQQKPGSSPKLWIYSTSNLASGVPARFSGSGSGTSYSLTISTMEAEDAATYYCHQYHRSPRTFGGGTKLEIKR

The next lines start with the binder.

Binder	proliferation of naïve CD4+ T cells, mean, at 0.04 ng/mL Ab [1]	proliferation of naïve CD4+ T cells, mean, at 0.15 ng/mL Ab [1]	proliferation of naïve CD4+ T cells, mean, at 0.61 ng/mL Ab [1]	proliferation of naïve CD4+ T cells, mean, at 2.4 ng/mL Ab [1]	proliferation of naïve CD4+ T cells, mean, at 9.8 ng/mL Ab [1]	proliferation of naïve CD4+ T cells, mean, at 39.1 ng/mL Ab [1]	proliferation of naïve CD4+ T cells, mean, at 156 ng/mL Ab [1]	proliferation of naïve CD4+ T cells, mean, at 625 ng/mL Ab [1]	proliferation of naïve CD4+ T cells, mean, at 2500 ng/mL Ab [1]	proliferation of naïve CD4+ T cells, mean, at 10000 ng/mL Ab [1]	koff (hGITR-hIgG [2])	kon (hGITR-hIgG [2])	Kd (hGITR-hIgG [3])
61G6 (antibody, V domains shown, Parental rodent anti-human GITR monoclonal antibody from a hybridoma; kappa VL; also called 61G6.B6; hybridoma PTA-9891) VH: DVQLQESGPGLVKPSQSLSLTCTVTGYSITSDYAWNWIRQFPGNKLEWMGYISYSGSTRYNPSLKSRISITRDTSKNQFFLQLNSVTSEDTATYYCARQLGLRFFDYWGQGTTLTVSS VL: QIVLTQSPALMSASPGEKVTMTCSANSTVNYMYWYQQKPRSSPKPCIYLTSNLASGVPARFSGSGSGTSYSLTISSMEAEDAATYYCQQWNSNPPTFGAGTKLELRR	31000	35600	32600	28900	34300	40100	45600	75100	116000	135000	6.9e-05 s⁻¹	4000 M⁻¹ s⁻¹	15.6 nM
61F6 (antibody, V domains shown, Parental rodent anti-human GITR monoclonal antibody from a hybridoma; kappa VL; also called 61F6.B9; hybridoma PTA-9893) VH: QVQLQQSGAELARPGASVKMSCKASGYTFTSYTMHWVKQRPGQGLEWIGYINPRSVYTNYNQKFKDKATLTADKSSSTAYMQLSSLTSEDSAVYYCARLGGYYDTMDYWGQGTSVTVSS VL: not shown	34900	32000	37600	61300	96300	107000	108000	105000	96300	93400	0.0135 s⁻¹	1.11e+06 M⁻¹ s⁻¹	12.2 nM
36E5 (antibody, V domains shown, Parental rodent anti-human GITR monoclonal antibody from a hybridoma; kappa VL; also called 36E5.A5) VH: EVNLVESGGGLVKPGGSLKVSCAASGFTFSSYAMSWVRQTPEKRLEWVASISSGGTTYYPDSVKGRFTISRDNARNILYLQMSSLRSEDTAMYYCARVGGYYDSMDYWGQGISVTDSS VL: not shown	27500	26200	31000	47500	78700	90300	97100	82100	71800	83800	0.000177 s⁻¹	864000 M⁻¹ s⁻¹	0.205 nM
